T1: human MCAM, full length, expressed on transfected cells (human, UniProt P43121 24-646)
T1 construct: CHO cells transfected with the full length human MCAM gene; also called hMCAM; CD146
T1 chain: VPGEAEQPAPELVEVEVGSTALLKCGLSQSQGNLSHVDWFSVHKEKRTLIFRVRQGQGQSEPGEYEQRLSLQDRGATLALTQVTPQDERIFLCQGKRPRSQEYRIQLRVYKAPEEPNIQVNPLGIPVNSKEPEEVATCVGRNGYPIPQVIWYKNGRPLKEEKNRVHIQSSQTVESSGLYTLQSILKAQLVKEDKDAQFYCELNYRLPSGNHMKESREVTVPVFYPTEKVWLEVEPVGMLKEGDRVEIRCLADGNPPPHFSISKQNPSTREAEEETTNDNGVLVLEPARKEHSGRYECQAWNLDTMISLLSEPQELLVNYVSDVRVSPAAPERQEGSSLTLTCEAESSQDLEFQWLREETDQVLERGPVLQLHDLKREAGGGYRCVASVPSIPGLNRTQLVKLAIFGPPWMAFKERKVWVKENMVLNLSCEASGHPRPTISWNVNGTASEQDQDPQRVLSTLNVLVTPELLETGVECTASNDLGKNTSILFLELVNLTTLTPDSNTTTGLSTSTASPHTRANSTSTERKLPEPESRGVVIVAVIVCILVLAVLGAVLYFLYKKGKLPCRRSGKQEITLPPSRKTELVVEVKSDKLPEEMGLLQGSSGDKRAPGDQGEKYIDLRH

T2: human MCAM domain 1 (MCAMhFc domain construct) (human, UniProt P43121 19-129)
T2 construct: also called amino acids 19-129; not shown: human Fc portion (captured on anti-human IgG Fc biosensors)
T2 sequence: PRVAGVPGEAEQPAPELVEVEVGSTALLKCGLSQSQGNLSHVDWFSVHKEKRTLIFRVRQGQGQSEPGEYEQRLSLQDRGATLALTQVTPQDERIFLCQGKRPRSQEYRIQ

T3: recombinant hMCAM-His (human, UniProt P43121 24-559)
T3 construct: not shown: His tag
T3 chain: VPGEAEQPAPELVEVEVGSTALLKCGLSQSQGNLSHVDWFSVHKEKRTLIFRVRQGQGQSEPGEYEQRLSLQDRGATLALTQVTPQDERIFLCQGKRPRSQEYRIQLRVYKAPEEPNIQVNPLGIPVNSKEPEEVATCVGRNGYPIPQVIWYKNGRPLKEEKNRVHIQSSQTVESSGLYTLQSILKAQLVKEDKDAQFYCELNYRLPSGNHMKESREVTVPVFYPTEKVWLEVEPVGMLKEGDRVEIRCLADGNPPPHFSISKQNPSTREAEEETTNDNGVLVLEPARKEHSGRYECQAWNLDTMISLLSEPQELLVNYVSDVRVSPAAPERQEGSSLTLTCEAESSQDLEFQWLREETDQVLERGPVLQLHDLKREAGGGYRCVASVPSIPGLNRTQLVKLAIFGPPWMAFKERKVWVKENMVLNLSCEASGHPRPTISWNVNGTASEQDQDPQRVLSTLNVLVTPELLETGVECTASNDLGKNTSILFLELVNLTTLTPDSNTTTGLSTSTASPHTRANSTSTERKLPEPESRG


Assays:
[1] = target: T1, human MCAM, full length, expressed on …; test: blocking of laminin 411 (20 ug/ml) binding to CHO cells expressing human MCAM, flow cytometry
Experimental: The 87 independent mouse fusion clones and 26 independent rat fusion clones described in Example 1 above as being capable of (i) binding to human MCAM, and (ii) blocking the interaction between human MCAM and the α-4 chain of laminin were further characterized as follows. First, IC50 quantitation for the ability of the monoclonal antibody to block the binding of human MCAM to the α-4 chain of laminin was determined as follows. CHO cells expressing human MCAM were incubated with an anti-human MCAM antibody (at various concentrations) for 30 minutes at 4 degrees Celsius. […] Unbound laminin was then washed away, and the laminin bound to the surface of the cells was detected with fluorescently labeled anti-laminin antibodies. After washing, the amount of laminin bound to the surface was detected by flow cytometry, and IC50s were calculated based on the mean fluorescent intensity.
Amino acid and nucleic acid sequences of the heavy and light chains of these antibodies, and their hypervariable regions, are provided in SEQ ID NOs:29-92. […] As such, each of these specific monoclonal antibodies was very capable of binding to human MCAM and inhibiting the interaction of cell-expressed human MCAM with its α-4 laminin binding ligand.

[2] = target: T2, human MCAM domain 1 (MCAMhFc domain …); test: ForteBio Octet Red, MCAMhFc domains on anti-human IgG Fc biosensors
Excerpt: The following protocol was used: ForteBio anti-human IgG Fc biosensors were used to immobilize various MCAMhFc domains including full length MCAMhFc protein on to biosensor surface. […] After loading these samples into a black 96 well plate, the Octet Red was programmed as follows: 60 seconds for baseline #1; 180 seconds for loading various domains; 60 seconds for baseline #2; 180 seconds for association of antibody to domain; and 240 seconds for dissociation of antibody from domain.
1. MCAMhFc final concentration@5 ug/ml [0374] […] 3. ForteBio anti-human IgG Fc Capture (AHC) biosensors for kinetics experiments, cat #18-5060 [0376] 4. Block 96 well plate from Greiner Bio-one, cat #655209 [0377] 5. ForteBio Octet Red machine [0378] 6. Fresh tissue culture medium, DMEM with 20% FCS, was used as buffer for dilution

[3] = target: T1, human MCAM, full length, expressed on …; test: laminin/FACS assay: blocking of laminin 411 binding to hMCAM expressing CHO cells; relative to rodent 2120
Experimental: Following incubation for 30-45 minutes, the cells were washed and anti-laminin conjugated to AF650 (NovusBio) was added to detect the bound laminin. The cells were run on a flow cytometer to measure the laminin binding signal.

[4] = target: T3, recombinant hMCAM-His; test: competitive ELISA on hMCAM-His against biotinylated rodent or chimeric 2120; relative to rodent 2120
Experimental: ELISA plates were coated with recombinant hMCAM-His, and blocked with casein buffer to prevent non-specific binding. Biotinylated rodent or chimeric antibody was added at a subsaturating concentration, in the presence or absence of 3× increasing concentrations of unlabeled competitor (humanized antibody, rodent, or chimeric). After washing to remove unbound antibody, streptavidin HRP was added to allow detection of the biotinylated antibody. The ELISA was developed with TMB substrate and the OD450 was measured. The IC50 of the unlabeled competitor was determined using the GraphPad Prism5 software.

[5] = target: T3, recombinant hMCAM-His; test: ForteBio Octet Red, antibody on anti-human Fc sensors, hMCAMHis analyte, 1:1 fit; relative to rodent 2120
Experimental: The affinities were measured using the ForteBio Octet Red. Anti-human Fc sensors were used to capture the humanized antibodies, and several concentrations of hMCAMHis analyte were used to determine the affinity using a 1:1 fitting model.

| Binder | IC50 [1] | binding result [2] | Fold over rodent (Blocking, Expt#1) [3] | Fold over rodent (Blocking, Expt#2) [3] | Fold over rodent (competitive ELISA IC50) [4] | Fold over rodent (competitive ELISA IC50, Expt. #1) [4] | Fold over rodent (competitive ELISA IC50, Expt. #2) [4] | Fold over rodent (Forte affinity) [5] | Fold over rodent (Forte affinity, Expt. #1) [5] | Fold over rodent (Forte affinity, Expt. #2) [5] | Fold over rodent (Forte affinity, second column) [5] |
| --- | --- | --- | --- | --- | --- | --- | --- | --- | --- | --- | --- |
| h2120_VH1 + h2120_VL3 (antibody, V domains shown, Humanized V regions cloned into expression vectors containing human CK (VL) or human IgG1 (VH); expressed in 293F cells; also called Standard VH + conservative VL; VH1VL3) VH: QVTLKESGPVLVKPTETLTLTCTVSGFSLTSNGVSWVRQPPGKALEWIAAISSGGTTYYNSAFKSRLTISRDTSKSQVVLTMTNMDPVDTATYYCARRYGYGWYFDFWGQGTLVTVSS VL: DIQMTQSPSSLSASVGDRVTINCKASQNIYNSLAWYQQKPGKAPKVLIFNANSLQTGIPSRFSGSGSGTDFTLTISSLQPEDFATYYCQQFYSGYTFGQGTKLEIK |  |  | 1.7 fold | 2.8 fold | 1.8 fold | 2.23 fold | 2.42 fold | 5.9 fold | 5.64 fold | 6.21 fold | 5.8 fold |
| h2120_VH2 + h2120_VL3 (antibody, human IgG1, V domains shown, also called Conservative VH + conservative VL) VH: QVTLKESGPVLVKPTETLTLTCTVSGFSLTSNGVSWVRQPPGKALEWIAAISSGGTTYYNSAFKSRLSISRDTSKSQVVLTMTNMDPVDTATYYCARRYGYGWYFDFWGQGTLVTVSS VL: DIQMTQSPSSLSASVGDRVTINCKASQNIYNSLAWYQQKPGKAPKVLIFNANSLQTGIPSRFSGSGSGTDFTLTISSLQPEDFATYYCQQFYSGYTFGQGTKLEIK |  |  |  |  |  | 1.93 fold | 2.62 fold |  | 6.57 fold | 6.43 fold |  |
| h2120_VH3 + h2120_VL3 (antibody, human IgG1, V domains shown, also called N-S deamidate VH + conservative VL) VH: QVTLKESGPVLVKPTETLTLTCTVSGFSLTSSGVSWVRQPPGKALEWIAAISSGGTTYYNSAFKSRLTISRDTSKSQVVLTMTNMDPVDTATYYCARRYGYGWYFDFWGQGTLVTVSS VL: DIQMTQSPSSLSASVGDRVTINCKASQNIYNSLAWYQQKPGKAPKVLIFNANSLQTGIPSRFSGSGSGTDFTLTISSLQPEDFATYYCQQFYSGYTFGQGTKLEIK |  |  |  |  |  | 3.47 fold |  |  | 16.1 fold |  |  |
| h2120_VH1 + h2120_VL2 (antibody, human IgG1, V domains shown, also called Standard VH + aggressive VL) VH: QVTLKESGPVLVKPTETLTLTCTVSGFSLTSNGVSWVRQPPGKALEWIAAISSGGTTYYNSAFKSRLTISRDTSKSQVVLTMTNMDPVDTATYYCARRYGYGWYFDFWGQGTLVTVSS VL: DIQMTQSPSSLSASVGDRVTITCKASQNIYNSLAWYQQKPGKAPKVLIFNANSLQTGVPSRFSGSGSGTDFTLTISSLQPEDFATYYCQQFYSGYTFGQGTKLEIK |  |  | 4.6 fold | 12.6 fold | 3.1 fold |  |  | 10.8 fold |  |  |  |
| h2120_VH1 + h2120_VL1 (antibody, human IgG1, V domains shown, also called Standard VH + standard VL) VH: QVTLKESGPVLVKPTETLTLTCTVSGFSLTSNGVSWVRQPPGKALEWIAAISSGGTTYYNSAFKSRLTISRDTSKSQVVLTMTNMDPVDTATYYCARRYGYGWYFDFWGQGTLVTVSS VL: DIQMTQSPSSLSASVGDRVTITCKASQNIYNSLAWYQQKPGKAPKVLIFNANSLQTGIPSRFSGSGSGTDFTLTISSLQPEDFATYYCQQFYSGYTFGQGTKLEIK |  |  | 2 fold | 3.5 fold | 3.1 fold |  |  | 8.8 fold |  |  |  |

Results, then the binder that gave them:

| IC50 [1] | binding result [2] | Fold over rodent (Blocking, Expt#1) [3] | Fold over rodent (Blocking, Expt#2) [3] | Fold over rodent (competitive ELISA IC50) [4] | Fold over rodent (competitive ELISA IC50, Expt. #1) [4] | Fold over rodent (competitive ELISA IC50, Expt. #2) [4] | Fold over rodent (Forte affinity) [5] | Fold over rodent (Forte affinity, Expt. #1) [5] | Fold over rodent (Forte affinity, Expt. #2) [5] | Fold over rodent (Forte affinity, second column) [5] | Binder |
| --- | --- | --- | --- | --- | --- | --- | --- | --- | --- | --- | --- |
| 0.29 µg/mL | no binding (tested: 5 ug/ml) |  |  |  |  |  |  |  |  |  | rat anti-human MCAM monoclonal antibody clone 2107.4.10 (antibody, V domains shown) VH: QVQLKESGPGLVQSSQTLSLTCTVSGFSLTSNGVSWVRQPPGKGLEWIAAISSGGSTYYNSAFKSRLSISRNTSKSQVLLKMNSLQTEDTGMYFCARHRPFYFDYWGQGVMVTVSS VL: DIQVTQSPSLLSASVGDRVTLNCKGSQNIYKSLAWFRLKRGEAPKLLIYDANSLQTGIPSRFSGSGSGTDFTLTITSLQPEDVATYFCQQYYSGYTFGAGTKLELK |
|  | no binding (tested: 5 ug/ml) |  |  |  |  |  |  |  |  |  | rat anti-human MCAM monoclonal antibody clone 2120.4.19 (antibody, V domains shown, also called m2120) VH: QVQLKESGPGLVQPSQTLSLTCTVSGFSLTSNGVSWVRQPPGKGLEWIAAISSGGTTYYNSAFKSRLSISRNTSKSQVLLKMNSLQTEDTAMYFCARRYGYGWYFDFWGPGTMVTVSS VL: DIRMTQSPSLLSASVGDRVTLNCKASQNIYNSLAWYQQKLGEGPKVLIPNANSLQTGIPSRFSGSGSGTDFTLTISSLQPEDFATYFCQQFYSGYTFGAGTKLELK |
|  |  | 3.8 fold | 5.6 fold | 5 fold |  |  | 17.4 fold |  |  |  | h2120_VH4 + h2120_VL3 (antibody, human IgG1, V domains shown, also called N-Q deamidate VH + conservative VL) VH: QVTLKESGPVLVKPTETLTLTCTVSGFSLTSQGVSWVRQPPGKALEWIAAISSGGTTYYNSAFKSRLTISRDTSKSQVVLTMTNMDPVDTATYYCARRYGYGWYFDFWGQGTLVTVSS VL: DIQMTQSPSSLSASVGDRVTINCKASQNIYNSLAWYQQKPGKAPKVLIFNANSLQTGIPSRFSGSGSGTDFTLTISSLQPEDFATYYCQQFYSGYTFGQGTKLEIK |
|  |  | 1.2 fold | 1.5 fold | 2.4 fold |  |  | 1.1 fold |  |  | 1.2 fold | h2120_VH5 + h2120_VL3 (antibody, V domains shown, also called h2120VH5VL3; VH5VL3) VH: QVTLKESGPVLVKPTETLTLTCTVSGFSLTSNAVSWVRQPPGKALEWIAAISSGGTTYYNSAFKSRLTISRDTSKSQVVLTMTNMDPVDTATYYCARRYGYGWYFDFWGQGTLVTVSS VL: DIQMTQSPSSLSASVGDRVTINCKASQNIYNSLAWYQQKPGKAPKVLIFNANSLQTGIPSRFSGSGSGTDFTLTISSLQPEDFATYYCQQFYSGYTFGQGTKLEIK |

— patent US20150259419A1 (PROTHENA BIOSCIENCES, published 2015)
